Consider 5 molecules from paper doi:10.1101/869289 (bioRxiv, 2019).

The labels stand for the following.
B1: Tim22 (natural protein, human, UniProt Q9Y584 1-194, looked up)
chain: MAAAAPNAGGSAPETAGSAEAPLQYSLLLQYLVGDKRQPRLLEPGSLGGIPSPAKSEEQKMIEKAMESCAFKAALACVGGFVLGGAFGVFTAGIDTNVGFDPKDPYRTPTAKEVLKDMGQRGMSYAKNFAIVGAMFSCTECLIESYRGTSDWKNSVISGCITGGAIGFRAGLKAGAIGCGGFAAFSAAIDYYLR
B2: Tim10a (natural protein, human, UniProt P62072 1-90, looked up)
chain: MDPLRAQQLAAELEVEMMADMYNRMTSACHRKCVPPHYKEAELSKGESVCLDRCVSKYLDIHERMGKKLTELSMQDEELMKRVQQSSGPA
B3: Tim29 (natural protein, human, UniProt Q9BSF4 32-260, looked up)
chain: GSWARALLRDYAEACRDASAEARARPGRAAVYVGLLGGAAACFTLAPSEGAFEEALLEASGTLLLLAPATRNRESEAFVQRLLWLRGRGRLRYVNLGLCSLVYEAPFDAQASLYQARCRYLQPRWTDFPGRVLDVGFVGRWWVLGAWMRDCDINDDEFLHLPAHLRVVGPQQLHSETNERLFDEKYKPVVLTDDQVDQALWEEQVLQKEKKDRLALSQAHSLVQAEAPR
B5: Tim10b (natural protein, human, UniProt Q9Y5J6 1-103, looked up)
chain: MERQQQQQQQLRNLRDFLLVYNRMTELCFQRCVPSLHHRALDAEEEACLHSCAGKLIHSNHRLMAAYVQLMPALVQRRIADYEAASAVPGVAAEQPGVSPSGS

Holding throughout (test): cryo-EM structure
The assay “Tim29” addresses B3.
The assay “Tim22” has as its target B1.
For assay [1], the target named is T1, acylglycerol kinase (AGK) (human, UniProt Q53H12 1-422).
T1 sequence (looked up): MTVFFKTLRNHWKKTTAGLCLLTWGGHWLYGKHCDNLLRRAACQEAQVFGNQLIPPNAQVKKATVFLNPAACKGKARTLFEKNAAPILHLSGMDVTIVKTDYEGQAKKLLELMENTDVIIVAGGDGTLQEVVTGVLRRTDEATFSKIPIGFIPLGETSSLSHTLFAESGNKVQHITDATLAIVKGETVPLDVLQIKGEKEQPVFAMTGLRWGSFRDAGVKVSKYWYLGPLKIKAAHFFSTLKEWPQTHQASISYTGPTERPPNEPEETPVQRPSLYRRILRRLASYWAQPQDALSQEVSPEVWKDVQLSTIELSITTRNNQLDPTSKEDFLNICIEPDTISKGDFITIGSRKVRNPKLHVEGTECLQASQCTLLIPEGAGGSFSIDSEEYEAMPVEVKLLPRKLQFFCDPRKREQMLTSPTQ

In the assay “Tim10b” the target is B5.
The assay “Tim10a” concerns the target B2.

On to B1, for which the binding result with Tim29 was “binds”.

With B2, the binding result (with Tim22; with Tim29; in assay [1]; in the assay with Tim10b) was “binds” throughout.

In the case of B3, in assay [1], the binding result was “binds”.

B4: Tim9 (natural protein, human, UniProt Q9Y5J7 1-89, looked up)
chain: MAAQIPESDQIKQFKEFLGTYNKLTETCFLDCVKDFTTREVKPEETTCSEHCLQKYLKMTQRISMRFQEYHIQQNEALAAKAGLLGQPR
Regarding B4, the binding result (with Tim22; with Tim29; in assay [1]; with Tim10b) was “binds” throughout. Besides, the “stoichiometry N” value with Tim10a is 1 Tim9:Tim10a (3:3 in the hexamer).

Turning to B5, the binding result (with Tim29; in assay [1]) was “binds” each time.
